Assay results taken from the Human Domainome abundance scans (Beltran et al. 2025).

B1: Integrator complex subunit 12, residues 155 to 213; numbered along this chain, Q96CB8 (parent)
chain: AMEMGLACVVCRQMMVASGNQLVECQECHNLYHRDCHKPQVTDKEANDPRLVWYCARCT

Variants of: B1
Experiment: abundance fitness (aPCA) (normalised: wild type 0, dead -1); higher = more abundant; growth selection in yeast, the domain comes from the species named
Settings: Homo sapiens

Abundance fitness of substitutions, site by site:
N47: A -0.166 | Y -0.223 | W -0.154 | F -0.162 | T -0.075 | L -0.05 | P -0.2 | S 0.035 | K -0.046 | C -0.013
E45: L -0.048 | H -0.134 | D 0.005 | G -0.222 | P -0.222 | I -0.213 | A -0.087 | T -0.052 | N -0.074 | Q -0.014 | M -0.193 | R -0.207 | C -0.111 | K 0.073 | F -0.192 | Y 0.005 | W -0.248 | V -0.038
W53: L -0.283 | D -0.104 | P -0.302 | Q -0.205 | H -0.266 | F -0.045 | N -0.112 | Y -0.322 | R -0.147 | T -0.13 | C -0.453 | V -0.398 | M -0.252 | G -0.27 | A -0.115 | K -0.146
K44: A 0.008 | W -0.306 | C 0.059 | G 0.023 | M -0.036 | Y -0.486 | H -0.124 | V -0.038 | D 0.078 | Q -0.081 | L -0.121 | I 0.024 | T 0.043 | S -0.074 | E 0.042 | N 0.119 | R -0.042 | P -0.076 | F -0.139
H37: N -0.144 | R -0.315 | V -0.075 | E -0.223 | M 0.031 | G -0.148 | C -0.144 | S -0.088 | L -0.145 | D -0.002 | T -0.101 | K -0.379 | F -0.226 | I -0.007 | A -0.048 | Q -0.176 | W -0.297 | P -0.645 | Y -0.249
A46: F 0.07 | M -0.201 | Q -0.079 | K 0.05 | Y -0.029 | R -0.089 | V 0.008 | S -0.075 | D -0.092 | E -0.061 | L 0.003 | C -0.149 | N -0.082 | I -0.077 | G -0.029 | T -0.136 | H -0.181 | P -0.202 | W -0.063
L51: A 0.042 | S 0.049 | F -0.048 | D 0.013 | R 0.062 | P 0.035 | T 0.037 | H 0.063 | G 0.069 | W -0.108 | E 0.056 | I -0.282 | K 0.089 | V -0.003 | Q 0.02 | Y -0.169 | N -0.197
V52: W -0.36 | M -0.033 | N -0.012 | A 0.036 | L -0.018 | P 0.019 | K 0.103 | C -0.009 | D 0.025 | R -0.032 | I -0.095 | H -0.036 | T 0.034 | G 0.023 | F -0.126 | Y -0.284
P39: C 0.045 | Y -0.295 | M -0.248 | F -0.308 | R -0.279 | N -0.144 | V -0.257 | W -0.363 | H -0.347 | L -0.294 | G -0.28 | A -0.313 | T -0.087 | I -0.184 | S -0.228
D43: N 0.043 | V -0.057 | C -0.078 | M -0.056 | Q -0.123 | S -0.074 | F -0.118 | R -0.25 | P -0.093 | T -0.08 | K -0.163 | H -0.155 | Y -0.161 | L -0.098 | A -0.05 | E -0.037 | W -0.189 | I -0.073
